Assay results published in paper PMC8230665, “Specificity of Human Sulfiredoxin for Reductant and Peroxiredoxin Oligomeric State” (Antioxidants, 2021).

T1: hyperoxidized wild-type human peroxiredoxin 1, decameric (Prx1-SO2H) (human, UniProt Q06830 1-199, cysteine sulfinic acid at the peroxidatic cysteine (CP-SO2H; CP is Cys52))
T1 construct: peroxiredoxin 1 (Prx1), human; also called hyperoxidized Prx1; copies: 10
T1 sequence (looked up): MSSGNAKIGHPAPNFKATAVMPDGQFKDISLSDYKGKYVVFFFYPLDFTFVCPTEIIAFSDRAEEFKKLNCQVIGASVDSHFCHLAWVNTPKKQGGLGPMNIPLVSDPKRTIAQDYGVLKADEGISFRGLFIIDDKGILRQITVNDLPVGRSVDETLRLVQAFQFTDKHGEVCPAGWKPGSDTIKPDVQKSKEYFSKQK


Columns and labels:
[1] = target: the molecule itself; assay: SEC-MALS; 2 mg/mL (86-93 µM) Prx in 50 mM HEPES pH 7.5, 100 mM NaCl; TSK Gel 4000 SW; reduced samples with 10 mM DTT, oxidized samples with 1.2 equivalents of H2O2
[2] = target: the molecule itself; assay: crystal structure; disulfide-bonded Srx-Prx1 complex (Cys99 of Srx to Cys52 of Prx1); hanging drop, 100 mM citric acid pH 4.5, 26% PEG 400, 100 mM CsCl; 3.0 Å, space group C2
[3] = target: T1, hyperoxidized wild-type human …; assay: fluorescence polarisation; Oregon Green 514-labelled Srx variants, decameric Prx1-SO2H added; MgCl2 omitted to prevent turnover; curves fit to a single site, saturable model; details: both partners purified

Binder	stoichiometry N [1]	further results
human peroxiredoxin 2, wild type (enzyme, UniProt P32119 1-198, looked up, peroxiredoxin 2 (Prx2), human; Stored in the disulfide-bonded form; run on SEC-MALS reduced (10 mM DTT) or oxidized (1.2 equivalents of H2O2); In the repair assay the protein was hyperoxidized (CP-SO2H); also called Prx2; WT Prx2; copies: 10) MASGNARIGKPAPDFKATAVVDGAFKEVKLSDYKGKYVVLFFYPLDFTFVCPTEIIAFSNRAEDFRKLGCEVLGVSVDSQFTHLAWINTPRKEGGLGPLNIPLLADVTRRLSEDYGVLKTDEGIAYRGLFIIDGKGVLRQITVNDLPVGRSVDEALRLVQAFQYTDEHGEVCPAGWKPGSDTIKPNVDDSKEYFSKHN	10	
human peroxiredoxin 1 variant C71S, C83V, C173S (decamer) (enzyme, Cys52 disulfide-bonded to Cys99 of Srx (made through a Cys52-S-TNB mixed disulfide), peroxiredoxin 1 (Prx1), human; Only the peroxidatic Cys52 is left; C83V was put in to stabilise the decamer; also called Prx1 variant; Prx1 C83V mutant; source: purified; treated with DTNB, then titrated with Srx; copies: 10) MSSGNAKIGHPAPNFKATAVMPDGQFKDISLSDYKGKYVVFFFYPLDFTFVCPTEIIAFSDRAEEFKKLNSQVIGASVDSHFVHLAWVNTPKKQGGLGPMNIPLVSDPKRTIAQDYGVLKADEGISFRGLFIIDDKGILRQITVNDLPVGRSVDETLRLVQAFQFTDKHGEVSPAGWKPGSDTIKPDVQKSKEYFSKQK		stoichiometry N [2]: 10
Oregon Green 514-labelled human sulfiredoxin (Srx), wild type (enzyme, Oregon Green 514 label (position not given), sulfiredoxin (Srx), human; also called WT Srx; Oregon Green labeled Srx) not shown		Kd [3]: 7 ± 1.5 µM
Oregon Green 514-labelled human sulfiredoxin Tyr128Ala (enzyme, Oregon Green 514 label (position not given), sulfiredoxin (Srx), human; The unlabelled variant was used in the HPLC activity assay; also called Srx Y128A; source: site-directed mutant (QuikChange), purified) not shown		Kd [3]: 12.5 ± 1.2 µM
human peroxiredoxin 2 Thr82Glu, engineered dimer (enzyme, UniProt P32119 1-198, looked up, peroxiredoxin 2 (Prx2), human; Vector pET19pp; His tag removed with HRV-3C protease; Section 2.6 prints the mutation as T83E; In the repair assay the protein was about 80% hyperoxidized; also called Prx2-T82E; Prx2-E; source: E. coli BL21Gold (DE3), purified (HisPur Cobalt, Q-Sepharose, Superdex 200); not shown: His tag, N-terminal, cleaved) MASGNARIGKPAPDFKATAVVDGAFKEVKLSDYKGKYVVLFFYPLDFTFVCPTEIIAFSNRAEDFRKLGCEVLGVSVDSQFEHLAWINTPRKEGGLGPLNIPLLADVTRRLSEDYGVLKTDEGIAYRGLFIIDGKGVLRQITVNDLPVGRSVDEALRLVQAFQYTDEHGEVCPAGWKPGSDTIKPNVDDSKEYFSKHN	2	
human peroxiredoxin 3 Ser139Glu/Ala142Glu, engineered dimer (enzyme, UniProt P30048 62-256, looked up, peroxiredoxin 3 (Prx3), mitochondrial, human; Vector pET15b; His tag removed with thrombin; In the repair assay the protein was about 20% hyperoxidized; also called Prx3-S139E/A142E; Prx3-EE; source: E. coli BL21Gold (DE3), purified (HisPur Cobalt, Q-Sepharose, Superdex 200); not shown: His tag, N-terminal, cleaved) APAVTQHAPYFKGTAVVNGEFKDLSLDDFKGKYLVLFFYPLDFTFVCPTEIVAFSDKANEFHDVNCEVVAVSVDSHFEHLEWINTPRKNGGLGHMNIALLSDLTKQISRDYGVLLEGSGLALRGLFIIDPNGVIKHLSVNDLPVGRSVEETLRLVKAFQYVETHGEVCPANWTPDSPTIKPSPAASKEYFQKVNQ	2	
human peroxiredoxin 3, wild type (enzyme, UniProt P30048 62-256, looked up, peroxiredoxin 3 (Prx3), mitochondrial, human; In the repair assay the protein was hyperoxidized (CP-SO2H); also called Prx3; WT Prx3; copies: 12) APAVTQHAPYFKGTAVVNGEFKDLSLDDFKGKYLVLFFYPLDFTFVCPTEIVAFSDKANEFHDVNCEVVAVSVDSHFSHLAWINTPRKNGGLGHMNIALLSDLTKQISRDYGVLLEGSGLALRGLFIIDPNGVIKHLSVNDLPVGRSVEETLRLVKAFQYVETHGEVCPANWTPDSPTIKPSPAASKEYFQKVNQ	12	
